In publication PMC11687654 one finds fold increase of the AlphaLISA interaction signal data, which are given here for one substance.

In assay [1] the target is TDP-43-flag (pcDNA3.1 construct) (UniProt Q13148). Nature of the assay: AlphaScreen or HTRF; proximity AlphaLISA on lysates of co-transfected HEK293FT cells, 72 hr after transfection; anti-FLAG acceptor beads, biotinylated Ataxin-2 antibody and streptavidin donor beads; room temperature.
Assay [2] concerns the target TDP-43mutRRM-flag (pcDNA3.1 construct) (UniProt Q13148). The description is as above.

Chain of Ataxin-2 (ATXN2, pcDNA3.1 construct) (Q99700 whole entry): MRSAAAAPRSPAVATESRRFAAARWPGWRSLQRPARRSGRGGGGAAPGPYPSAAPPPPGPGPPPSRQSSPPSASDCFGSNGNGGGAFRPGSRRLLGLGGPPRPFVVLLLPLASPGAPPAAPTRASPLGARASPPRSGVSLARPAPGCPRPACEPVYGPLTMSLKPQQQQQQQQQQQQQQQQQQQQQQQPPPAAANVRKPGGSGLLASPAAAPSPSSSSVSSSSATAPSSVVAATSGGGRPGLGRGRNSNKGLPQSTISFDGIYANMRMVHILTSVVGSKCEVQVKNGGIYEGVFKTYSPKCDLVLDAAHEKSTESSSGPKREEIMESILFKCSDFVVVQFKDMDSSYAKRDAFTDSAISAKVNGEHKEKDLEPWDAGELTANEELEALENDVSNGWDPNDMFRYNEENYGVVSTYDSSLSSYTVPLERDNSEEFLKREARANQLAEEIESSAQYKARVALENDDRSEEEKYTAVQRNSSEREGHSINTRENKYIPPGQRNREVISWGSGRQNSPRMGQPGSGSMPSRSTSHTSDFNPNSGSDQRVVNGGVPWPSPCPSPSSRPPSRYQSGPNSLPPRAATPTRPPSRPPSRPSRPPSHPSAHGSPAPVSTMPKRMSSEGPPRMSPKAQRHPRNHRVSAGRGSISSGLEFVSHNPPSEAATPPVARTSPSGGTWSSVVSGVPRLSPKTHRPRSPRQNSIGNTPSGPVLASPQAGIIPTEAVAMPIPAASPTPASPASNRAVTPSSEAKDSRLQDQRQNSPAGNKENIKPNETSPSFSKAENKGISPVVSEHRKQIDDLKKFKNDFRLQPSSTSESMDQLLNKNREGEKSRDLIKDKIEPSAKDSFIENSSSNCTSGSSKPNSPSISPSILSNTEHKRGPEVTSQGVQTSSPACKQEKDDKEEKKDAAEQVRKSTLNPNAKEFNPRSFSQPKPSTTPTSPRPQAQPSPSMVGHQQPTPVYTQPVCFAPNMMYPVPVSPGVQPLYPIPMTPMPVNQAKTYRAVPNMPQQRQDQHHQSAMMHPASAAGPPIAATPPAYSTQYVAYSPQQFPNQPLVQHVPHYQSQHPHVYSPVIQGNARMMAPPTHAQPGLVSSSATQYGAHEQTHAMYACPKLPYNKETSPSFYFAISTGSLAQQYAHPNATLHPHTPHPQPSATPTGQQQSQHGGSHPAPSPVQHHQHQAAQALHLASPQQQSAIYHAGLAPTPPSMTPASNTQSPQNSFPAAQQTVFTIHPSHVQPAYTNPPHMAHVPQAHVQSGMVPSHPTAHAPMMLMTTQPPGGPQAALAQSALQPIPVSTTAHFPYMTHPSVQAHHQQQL
Chain of TDP-43mutRRM-flag (pcDNA3.1 construct) (Q13148 whole entry): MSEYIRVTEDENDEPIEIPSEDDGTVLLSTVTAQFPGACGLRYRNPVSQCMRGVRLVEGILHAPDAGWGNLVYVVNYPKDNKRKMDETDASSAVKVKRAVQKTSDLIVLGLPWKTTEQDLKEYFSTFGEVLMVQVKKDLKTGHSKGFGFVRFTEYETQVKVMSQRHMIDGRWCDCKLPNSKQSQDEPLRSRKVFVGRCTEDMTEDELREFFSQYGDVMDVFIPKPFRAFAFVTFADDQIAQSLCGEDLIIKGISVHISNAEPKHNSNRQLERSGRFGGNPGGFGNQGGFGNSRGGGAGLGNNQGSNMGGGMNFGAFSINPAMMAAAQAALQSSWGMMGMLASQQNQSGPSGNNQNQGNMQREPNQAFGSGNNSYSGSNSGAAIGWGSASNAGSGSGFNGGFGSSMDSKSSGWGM
Chain of TDP-43-flag (pcDNA3.1 construct) (Q13148 whole entry): as above

“Ataxin-2 (ATXN2, pcDNA3.1 construct) (from UniProt Q99700 1-1313) (natural protein)”: the fold increase of the AlphaLISA interaction signal in assay [1] was found to be 22 fold; in assay [2] it was 2 fold.
